Marks after values point to notes of the source that are not given here.
T1: LgBiT-tagged human CXCR4 receptor ( | human, UniProt P61073 2-352, CXCR4 portion only (initiator Met removed (so in the source)); this part carries VUN400, CXCL12, AMD3100 and IT1t binding. Left out: the 5-HT3A signal sequence (presumed cleaved), the N-terminal LgBiT report)
T1 chain: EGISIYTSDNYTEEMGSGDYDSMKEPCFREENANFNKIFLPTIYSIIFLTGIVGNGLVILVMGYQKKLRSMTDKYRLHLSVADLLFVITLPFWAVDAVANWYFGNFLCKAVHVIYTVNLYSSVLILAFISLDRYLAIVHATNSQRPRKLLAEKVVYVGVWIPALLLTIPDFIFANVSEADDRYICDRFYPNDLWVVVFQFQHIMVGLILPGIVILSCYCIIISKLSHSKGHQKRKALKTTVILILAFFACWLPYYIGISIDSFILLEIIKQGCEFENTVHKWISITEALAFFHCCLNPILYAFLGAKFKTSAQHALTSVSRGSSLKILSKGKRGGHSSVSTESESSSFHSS

B1: purified HiBiT-HaloTag fusion protein (peptide)
chain: VSGWRLFKKIS
notes: Fusion protein of circa 34 kDa; also called HiBiT-HaloTag control protein; source: bought: Promega (Cat# N3010)

How the values were obtained:
LgBiT-CXCR4 [1] = target: T2, LgBiT-CXCR4 (Homo sapiens, UniProt P61073); assay: NanoBiT association kinetic measurements (complemented luminescence) in HEK293 cells stably expressing LgBiT-CXCR4; type: binding; settings: KD = koff/kon at LgBiT-CXCR4
T2 construct: GSSG linker and TEV recognition site (EDLYFQS), between LgBiT and CXCR4 (N); expressed in transfected cells; whole cells in A1-A4, isolated membranes in A9/A10
Experimental: Cells (30,000 per well) were plated in white 96-well poly-D-lysine coated plates (10 μg/ml in PBS) as described above. After 24 hours, media was removed and replaced with 50 μl HBSS containing furimazine (1:400 final concentration) and incubated at 37°C for 10 minutes and basal luminescence was measured. […] The resulting luminescence was measured over 60 minutes at 37°C. Luminescence was measured using the PHERAstar FS plate reader.
Nanobody binding association kinetic data were fitted to the following mono-exponential association function: Y=Ymax(1−e^−kobs.t) where Ymax is the specific binding at infinite time, t is the time of incubation, and kobs is the rate constant for the observed rate of association.
kon and koff values were determined by simultaneously fitting nanobody binding association kinetic curves obtained at different nanobody concentrations (L) to the equation above with the relationship between kobs and the two kinetic binding rate constants kon and koff given by: kon=kobs−koff/L
Kinetically determined nanobody KD values were determined with the following equation: KD=koff/kon

LgBiT-CXCR4 [2] = target: T2, LgBiT-CXCR4; assay: NanoBiT saturation binding (complemented luminescence) in HEK293 cells stably expressing LgBiT-CXCR4; settings: for prevention of VUN400-HiBiT binding to LgBiT-CXCR4: fixed concentration: 100 nM CXCL12, 10 μM AMD3100 or 10 μM IT1t (Figure 3E)
Experimental: Saturation binding with VUN400-HiBiT was performed on HEK 293 cells stably expressing the LgBiT-CXCR4 receptor. Cells were plated at 30,000 cells/well in white 96-well plates previously coated with poly-D-lysine (10 μg/ml in PBS) in 100 μl complete media (DMEM with 10% FCS). After 24 hours, the media was removed and replaced with 100 μl HBSS containing VUN400-HiBiT within the range of 4-500 nM. Where used, CXCL12, AMD3100 or IT1t were also added at this point. The plate was incubated for two hours at 37°C. Furimazine (1:400 final concentration) was added to each well and the plate was incubated for a further 15 minutes at 37°C. Luminescence was measured using the PHERAstar FS plate reader.
Saturation binding curves of VUN400-HiBiT were fitted using the following equation: Specificbinding=Bmax×[B]/[B]+KD where Bmax is the maximal specific binding, [B] is the concentration of VUN400-HiBiT, and KD is the equilibrium dissociation constant (nM).

LgBiT-CXCR4 [3] = target: T2, LgBiT-CXCR4; assay: NanoBRET saturation binding at complemented LgBiT-CXCR4 in HEK293 cells; settings: non-specific binding defined with 10 μM AMD3100, 2 h 37°C
Experimental: Saturation NanoBRET binding assays were performed on HEK 293 cells stably expressing the LgBiT-CXCR4 receptor. Cells were plated at 30,000 cells/well in white 96-well plates (Greiner) previously coated with 50 μl poly-D-lysine (mol wt: 70-150 kDa; 10 μg/ml in PBS) in 100 μl complete media (DMEM with 10% FCS). After 24 hours, the media was removed from each well and replaced with 100 μl HEPES-buffered saline solution (HBSS; 145 mM NaCl, 5 mM KCl, 1.3 mM CaCl2, 1 mM MgSO4, 10 mM HEPES, 2 mM sodium pyruvate, 1.5 mM NaHCO3, 10 mM D-glucose, pH 7.45) containing 10 nM purified HiBiT-HaloTag (Promega) and incubated at 37°C for 30 minutes. This was sufficient time for HiBiT-LgBiT complementation to occur, forming the fully complemented NanoLuc enzyme. The HBSS was then aspirated and the cells washed three times with 100 μl HBSS. […] Cells were incubated for 2 hours at 37°C in the dark. The NanoLuc substrate furimazine (Promega) was added to each well (1:400 final concentration) and allowed to equilibrate for 5 minutes at 37°C prior to reading. Luminescence signals were measured at two wavelengths using a PHERAstar FS plate reader (BMG Labtech, UK) at room temperature. Filtered light was simultaneously measured using 460 nm (80-nm bandpass) and >610 nm longpass filters. The resulting BRET ratio was calculated by dividing the >610 nm emission by the 460 nm emission.

LgBiT-CXCR4 [4] = target: T2, LgBiT-CXCR4; assay: CXCL12-AF647 dissociation kinetics (NanoBRET) at complemented LgBiT-CXCR4; type: binding
Experimental: Nanobody and CXCL12-AF647 dissociation kinetic measurements were performed in membranes isolated from HEK293 LgBiT-CXCR4 cells. Briefly, 10 μg LgBiT-CXCR4 membranes were plated in white 96-well plates containing furimazine (1:400 final concentration) and incubated at 37°C for 10 minutes. […] Increasing concentrations of VUN400-HiBiT or CXCL12-AF647 were added to the wells and luminescence (VUN400-HiBiT) or the BRET ratio (CXCL12-AF647) were measured. […] The BRET ratio was calculated as described above. Both the BRET ratio and luminescence were measured using the PHERAstar FS plate reader.
For nanobody dissociation experiments were fitted to the following mono-exponential decay equation: Y=(Y0−NS)^−k.t+NS where Y0 is the nanobody binding at the time of ligand addition (t0), NS is the nanobody bound at infinite time, and k is the rate constant of nanobody dissociation.

SNAP-CXCR4 [5] = target: T3, SNAP-CXCR4 (Homo sapiens, UniProt P61073); assay: TR-FRET saturation ligand binding at SNAP-CXCR4; set-up: expressed in transfected cells; host or cells: HEK293G cells stably expressing SNAP-CXCR4 (gift of Dr. J. Goulding, University of Nottingham)
Description: Saturation binding of VUN400-HiBiT a t th e
experiment is representative of five separate experiments.
Supplementary Figure 2 (related to Figure 5).
This single experiment is representative of five separate experiments.

LgBiT-CXCR4 [6] = target: T2, LgBiT-CXCR4; assay: NanoBiT nanobody displacement binding assay, whole HEK293 cells expressing LgBiT-CXCR4
Experimental: (§1) Full nanobody displacement assays were performed in HEK293 cells stably expressing either the LgBiT-CXCR4 or SNAP-CXCR4 constructs. Cells (30,000 per well) were plated in white 96-well poly-D-lysine coated plates as described above. After 24 hours, media was removed and replaced with 100 μl HBSS. Increasing concentrations of displacing ligands were added to the cells. […] The cells were incubated at 37°C for 2 and a half hours in total. […] Furimazine (1:400 final concentration) was added to each well and the plate was incubated for a further 15 minutes at 37°C. Luminescence was measured using the PHERAstar FS plate reader.

[7] = test system: T4, endogenous, untagged CXCR4; assay: Nanobody displacement assay in Jurkat T cells (endogenous CXCR4); type: binding, human; settings: 100 nM VUN400-HiBiT with competing ligand 2 h, washed, exogenous LgBiT added, p < 0.05
T4 construct: these cells express high levels of CXCR4 endogenously; host or cells: Jurkat T cells (clone E6-1)
Experimental: Nanobody displacement assays in T-cells were performed by seeding 100,000 Jurkat cells per well into V-bottom 96-well plates in 100μl warm HBSS. Cells were treated with 100 nM VUN400-HiBiT and competing ligands simultaneously and incubated for 2 hours at 37°C. The cells were pelleted by centrifugation at 300g for 5 minutes and the supernatant removed and replaced with 200 μl fresh HBSS. Cells were resuspended via shaking at 1000 r.p.m on an orbital plate shaker for 2 minutes. This wash step was repeated two more times to remove unbound VUN400-HiBiT. The cells were treated with 20 nM exogenous LgBiT and furimazine (1:400 final concentration) and transferred to white 96-well plates and luminescence read using a PHERAstar FS plate reader.

SNAP-CXCR4 [8] = target: T3, SNAP-CXCR4; assay: NanoBiT nanobody displacement binding assay, whole HEK293 cells expressing SNAP-CXCR4 (exogenous LgBiT added after washing); set-up: expressed in transfected cells; host or cells: HEK293G cells stably expressing SNAP-CXCR4 (gift of Dr. J. Goulding, University of Nottingham)
Experimental: as §1

SNAP-CXCR4 [9] = target: T3, SNAP-CXCR4; settings: 10 μM AMD3100 (Figure S1)
Description: Data are mean ± SEM from triplicate determinations in a single experiment. This single
Data are mean ± SEM from triplicate determinations in a single experiment.

[10] = target: T1, LgBiT-tagged human CXCR4 receptor; assay: split reporter (BiFC, NanoBiT); association kinetics; increasing concentrations of HiBiT added to HEK293 cells stably expressing LgBiT-CXCR4 in HBSS with furimazine; luminescence over 60 minutes at 37°C; global fit of kon and koff, KD = koff/kon; settings: one partner purified
[11] = 20 nM VUN400-HiBiT, (a) pre-incubation with VUN400-HiBiT
[12] = 20 nM VUN400-HiBiT, (b) simultaneous addition
[13] = 20 nM VUN400-HiBiT, (c) pre-incubation with ligands
[14] = 20 nM VUN400-HiBiT, (b) simultaneous addition, 2 h 37°C
[15] = (c) pre-incubation with ligands 2 h 37°C, then 20 nM VUN400-HiBiT 30 min
[16] = inhibition of 20 nM VUN400-HiBiT binding, (a) pre-incubation with VUN400-HiBiT 30 min, then ligand 2 h 37°C

T3 sequence (P61073 whole entry): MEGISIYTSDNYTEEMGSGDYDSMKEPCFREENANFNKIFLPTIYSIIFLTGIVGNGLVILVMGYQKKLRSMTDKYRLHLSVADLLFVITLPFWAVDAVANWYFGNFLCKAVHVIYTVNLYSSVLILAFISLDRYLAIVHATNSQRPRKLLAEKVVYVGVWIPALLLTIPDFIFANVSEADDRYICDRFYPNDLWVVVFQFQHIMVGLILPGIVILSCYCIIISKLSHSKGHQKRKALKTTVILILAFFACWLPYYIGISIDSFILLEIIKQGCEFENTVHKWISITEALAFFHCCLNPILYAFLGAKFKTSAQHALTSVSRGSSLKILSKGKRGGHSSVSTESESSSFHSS

Molecule	prevention of VUN400-HiBiT binding to LgBiT-CXCR4 (LgBiT-CXCR4 [2])	Maximum Inhibition (% 10 μM AMD3100) (LgBiT-CXCR4 [6]; [11])	Maximum Inhibition (% 10 μM AMD3100) (LgBiT-CXCR4 [6]; [12])	Maximum Inhibition (% 10 μM AMD3100) (LgBiT-CXCR4 [6]; [13])	displacement of VUN400-HiBiT from endogenous CXCR4 [7]	Maximum Inhibition (% 10 μM AMD3100) (SNAP-CXCR4 [8]; [11])	Maximum Inhibition (% 10 μM AMD3100) (SNAP-CXCR4 [8]; [12])	Maximum Inhibition (% 10 μM AMD3100) (SNAP-CXCR4 [8]; [13])	also measured
HiBiT: purified HiBiT-HaloTag fusion protein, circa 34 kDa (Promega)	–	–	–	–	–	–	–	–	pKD (determined from kinetic rate constants) (LgBiT-CXCR4 [1]): 6.4; saturation binding (in words) (LgBiT-CXCR4 [2]; increasing concentrations added to HEK LgBiT-CXCR4 cells): linear, indicative of low affinity
CXCL12-AF647: fluorescently labeled CXCL12, fluorescent orthosteric agonist (Almac)	–	–	–	–	–	–	–	–	pKD (LgBiT-CXCR4 [3]): 7.80 ± 0.08; koff (LgBiT-CXCR4 [4]; 10 nM CXCL12-AF647, after addition of 1 μM CXCL12): 0.00533 ± 0.0005 s⁻¹; koff (LgBiT-CXCR4 [4]; 10 nM CXCL12-AF647, after addition of 10 μM AMD3100): 0.007 ± 0.00067 s⁻¹; pKD (SNAP-CXCR4 [5]): 7.99 ± 0.10
CC1(C)CN2C(CSC(=NC3CCCCC3)NC3CCCCC3)=CSC2=N1.Cl.Cl [IT1t, N,N’-Dicyclohexylcarbamimidothioic acid (5,6-dihydro-6,6-dimethylimidazo[2,1-b]thiazol-3-yl)methyl ester dihydrochloride]	prevented	104.4 ± 4.5 % 10 μM AMD3100	96.5 ± 0.4 % 10 μM AMD3100	79.9 ± 3.1 ^c % 10 μM AMD3100	displaced	107.1 ± 4.8 % 10 μM AMD3100	106.8 ± 11.5 % 10 μM AMD3100	102.3 ± 3.6 % 10 μM AMD3100	–
CXCL12: chemokine ligand, endogenous orthosteric agonist of CXCR4 (PeproTech)	prevented	98.2 ± 0.2 % 10 μM AMD3100	98.8 ± 0.3 % 10 μM AMD3100	111.5 ± 3.1 ^c % 10 μM AMD3100	displaced	93.3 ± 8.7 % 10 μM AMD3100	92.8 ± 6.7 % 10 μM AMD3100	67.7 ± 11.6 ^c % 10 μM AMD3100	pIC50 (Mean ± SEM) (LgBiT-CXCR4 [6]; [14]): 8.74 ± 0.13; pIC50 (Mean ± SEM) (LgBiT-CXCR4 [6]; [15]): 9.03 ± 0.02; pIC50 (Mean ± SEM) (LgBiT-CXCR4 [6]; [16]): 8.82 ± 0.12; pIC50 (Mean ± SEM) (SNAP-CXCR4 [8]; [14]): 8.05 ± 0.21 ^a; pIC50 (Mean ± SEM) (SNAP-CXCR4 [8]; [15]): 8.05 ± 0.41; pIC50 (Mean ± SEM) (SNAP-CXCR4 [8]; [16]): 8.14 ± 0.28 ^a
c1cc(CN2CCCNCCNCCCNCC2)ccc1CN1CCCNCCNCCCNCC1 [AMD3100]	prevented	100 % 10 μM AMD3100	100 % 10 μM AMD3100	100 % 10 μM AMD3100	displaced	100 % 10 μM AMD3100	100 % 10 μM AMD3100	100 % 10 μM AMD3100	effect on VUN400-HiBiT bioluminescence signal at SNAP-CXCR4 (SNAP-CXCR4 [9]): able to reduce the bioluminescence signals
B1	–	–	–	–	–	–	–	–	koff [10]: 0.00367 s⁻¹; kon [10]: 10000 M⁻¹ s⁻¹; pKD [10]: 6.43 ± 0.13

Source: PMC7573392, “Monitoring Allosteric Interactions with CXCR4 Using NanoBiT Conjugated Nanobodies” (Cell Chemical Biology, 2020)
